Data from patent publication US20220306751A1 (MYTHIC THERAPEUTICS, published 2022).
Positions count from the first letter of the chain named.

Columns and labels:
[1] = biological target: T1, CD123 Protein, His Tag, Acro Biosciences Cat. No. ILA-H52H6 (Homo sapiens (Human), UniProt P26951 19-305); test: BLI, IgG on anti-human Fc sensor, pH 7.4 and pH 5.4
T1 construct: Bought protein; not shown: His tag
T1 sequence: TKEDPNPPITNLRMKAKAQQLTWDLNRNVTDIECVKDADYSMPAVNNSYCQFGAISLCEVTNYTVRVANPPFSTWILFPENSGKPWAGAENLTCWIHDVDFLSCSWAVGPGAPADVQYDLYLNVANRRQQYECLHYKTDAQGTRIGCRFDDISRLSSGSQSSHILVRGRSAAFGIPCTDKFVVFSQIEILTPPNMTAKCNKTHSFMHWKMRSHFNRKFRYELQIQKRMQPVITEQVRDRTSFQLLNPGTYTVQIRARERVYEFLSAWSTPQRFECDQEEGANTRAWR

[2] = biological target: T1, CD123 Protein, His Tag, Acro …; test: BLI, IgG on anti-human Fc sensor, 50 nM CD123, pH 7.4 and pH 5.4
Method in brief: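 Single His/Ala heavy-chain CDR variants were expressed in Expi293 and captured from diluted supernatant on anti-human Fc sensors. By BLI, association with 50 nM His-tagged CD123 ran for 120 s and dissociation for 300–600 s, all in PBST pH 7.4. The full cycle was repeated separately in PBST pH 5.4.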

B1: MYT1417 (antibody, V domains shown)
VH: QVQLVQSGAEVKKPGASVKMSCKASGYTHTDYYMKWVKQAPGQGLEWIGDIIPSNGATFYNQKFKGKATLTVDRSISTAYMHLNRLRSDDTAVYYCTRSHLLRASWFAYWGQGTLVTVSS
VL: DFVMTQSPDSLAVSLGERATINCKSSQSLLNSGNQKNYLTWYLQKPGQPPKLLIYWASTRESGVPDRFSGSGSGTDFTLTISSLQAEDVAVYYCQNDYSYPYTFGQGTKLEIK
notes: IgG
B1: no binding (tested: 50 nM) [1].

B2: MYT1442 (antibody, V domains shown)
VH: B1 VH with H29F, R98H
VL: B1 VL
notes: IgG
B2: binds [2].

B3: MYT1432 (antibody, V domains shown)
VH: B1 VH with H29F, T58H
VL: B1 VL
notes: IgG
B3: binds [2].

B4: MYT1434 (antibody, V domains shown)
VH: B1 VH with H29F, Y60H
VL: B1 VL
notes: IgG
B4: binds [2].

B5: MYT1443 (antibody, V domains shown)
VH: B1 VH with H29F, S99H
VL: B1 VL
notes: IgG
B5: no binding (tested: 50 nM) [1].

B6: MYT1440 (antibody, V domains shown)
VH: B1 VH with H29F, G66H
VL: B1 VL
notes: IgG
B6: binds [2].

B7: MYT1447 (antibody, V domains shown)
VH: B1 VH with H29F, R103H
VL: B1 VL
notes: IgG
B7: no binding (tested: 50 nM) [1].

B8: MYT1441 (antibody, V domains shown)
VH: B1 VH with H29F, T97H
VL: B1 VL
notes: IgG
B8: no binding (tested: 50 nM) [1].

B9: MYT1449 (antibody, V domains shown)
VH: B1 VH with H29F, S105H
VL: B1 VL
notes: IgG
B9: binds [2].

B10: MYT1451 (antibody, V domains shown)
VH: B1 VH with H29F, F107H
VL: B1 VL
notes: IgG
B10: binds [2].

B11: MYT1429 (antibody, V domains shown)
VH: B1 VH with H29F, N55H
VL: B1 VL
notes: IgG
B11: binds [2].

B12: MYT1439 (antibody, V domains shown)
VH: B1 VH with H29F, K65H
VL: B1 VL
notes: IgG
B12: binds [2].

B13: MYT1450 (antibody, V domains shown)
VH: B1 VH with H29F, W106H
VL: B1 VL
notes: IgG
B13: no binding (tested: 50 nM) [1].

B14: MYT1452 (antibody, V domains shown)
VH: B1 VH with H29F, A108H
VL: B1 VL
notes: IgG
B14: binds [2].

B15: MYT1448 (antibody, V domains shown)
VH: B1 VH with H29F, A104H
VL: B1 VL
notes: IgG
B15: binds [2].

B16: MYT1424 (antibody, V domains shown)
VH: B1 VH with H29F, D50H
VL: B1 VL
notes: IgG
B16: no binding (tested: 50 nM) [1].

B17: MYT1436 (antibody, V domains shown)
VH: B1 VH with H29F, Q62H
VL: B1 VL
notes: IgG
B17: binds [2].

B18: MYT1430 (antibody, V domains shown)
VH: B1 VH with H29F, G56H
VL: B1 VL
notes: IgG
B18: binds [2].

B19: MYT1433 (antibody, V domains shown)
VH: B1 VH with H29F, F59H
VL: B1 VL
notes: IgG
B19: binds [2].

B20: MYT1437 (antibody, V domains shown)
VH: B1 VH with H29F, K63H
VL: B1 VL
notes: IgG
B20: binds [2].

B21: MYT1431 (antibody, V domains shown)
VH: B1 VH with H29F, A57H
VL: B1 VL
notes: IgG
B21: binds [2].

B22: MYT1453 (antibody, V domains shown)
VH: B1 VH with H29F, Y109H
VL: B1 VL
notes: IgG
B22: binds [2].

B23: MYT1446 (antibody, V domains shown)
VH: B1 VH with H29F, L102H
VL: B1 VL
notes: IgG
B23: binds [2].

B24: MYT1445 (antibody, V domains shown)
VH: B1 VH with H29F, L101H
VL: B1 VL
notes: IgG
B24: binds [2].

B25: MYT1444 (antibody, V domains shown)
VH: B1 VH with H29F, H100A
VL: B1 VL
notes: IgG
B25: no binding (tested: 50 nM) [1].

B26: MYT1438 (antibody, V domains shown)
VH: B1 VH with H29F, F64H
VL: B1 VL
notes: IgG
B26: binds [2].

B27: MYT1435 (antibody, V domains shown)
VH: B1 VH with H29F, N61H
VL: B1 VL
notes: IgG
B27: binds [2].

B28: MYT1427 (antibody, V domains shown)
VH: B1 VH with H29F, P53H
VL: B1 VL
notes: IgG
B28: no binding (tested: 50 nM) [1].

B29: MYT1425 (antibody, V domains shown)
VH: B1 VH with H29F, I51H
VL: B1 VL
notes: IgG
B29: no binding (tested: 50 nM) [1].

B30: MYT1281 (antibody, V domains shown)
VH: QVQLVQSGAEVKKPGASVKVSCKASGYIFTSSIMHWVRQAPGQGLEWIGYIKPYNDGTKYNEKFKGRATLTSDRSTSTAYMELSSLRSEDTAVYYCARHGGNDYYDTMDYWGQGTLVTVSS
VL: DIQMTQSPSSLSASVGDRVTITCRASQDINSYLSWFQQKPGKAPKTLIYRVNRLVDGVPSRFSGSGSGNDYTLTISSLQPEDFATYYCLQYDAFPYTFGQGTKVEIK
notes: IgG
B30: no binding (tested: 50 nM) [1].
